Experimental data reported in publication PMC4072508, “Genome-Wide Prediction and Validation of Peptides That Bind Human Prosurvival Bcl-2 Proteins” (PLoS Computational Biology, 2014).

These binders were tested against Bcl-xL, Q07817 (assay: peptide SPOT array, c-Myc-tagged receptor at 1 uM or 100 nM, anti-c-Myc-Cy3).
Bcl-xL, Q07817, sequence (Q07817 1-209): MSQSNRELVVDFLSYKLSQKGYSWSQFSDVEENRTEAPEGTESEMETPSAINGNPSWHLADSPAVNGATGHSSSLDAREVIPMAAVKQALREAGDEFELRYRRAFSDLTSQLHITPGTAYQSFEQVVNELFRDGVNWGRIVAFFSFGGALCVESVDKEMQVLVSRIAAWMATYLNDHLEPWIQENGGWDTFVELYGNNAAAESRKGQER
In the case of NEEGQQFALKLHRLGRTSFRNLKNKR, the SPOT signal as a fraction of Bim BH3's signal on the same receptor and array is reported as 0.95. With EGTKIVLGKQDIESADEVRRKSLVLK [TAF1] the SPOT signal as a fraction of Bim BH3's signal on the same receptor and array was 0.05. NEEGQQFALKLHRLLRTSFRNLKNKR was tested, and the SPOT signal as a fraction of Bim BH3's signal on the same receptor and array was 0.69. KTALEKYHDGIEKAAEDSYAKIDEKT [NUF2] was tested, and the SPOT signal as a fraction of Bim BH3's signal on the same receptor and array was 0.02. PHQFDGVPDKDIQAAYQVKYNSKKMK showed an SPOT signal as a fraction of Bim BH3's signal on the same receptor and array of 0.58. With SRELEEISERLEEAGGATSVQIEMNK [MYH6] the SPOT signal as a fraction of Bim BH3's signal on the same receptor and array was 0.02. Work on TCRISESVKKLMELAYQTLLEATTSS [ZW10] yielded an SPOT signal as a fraction of Bim BH3's signal on the same receptor and array of 0.04. With SSLSDGLPVHDANIADELTQKKKMFK the SPOT signal as a fraction of Bim BH3's signal on the same receptor and array was 0.03. For SSLSDGLPVHLANILDELTQKKKMFK, the SPOT signal as a fraction of Bim BH3's signal on the same receptor and array was 0.1. Binder FDNAMLRARRLYQLAYDTYQEFEEAY [GH2] has an SPOT signal as a fraction of Bim BH3's signal on the same receptor and array of 0.04. With VPFATELHERLAKDSEKLKEEIGKEL [APOA4] the SPOT signal as a fraction of Bim BH3's signal on the same receptor and array was 0.02. Work on QGDVQMAVSVLIVLGERVRKDIDEQT [WDR24] yielded an SPOT signal as a fraction of Bim BH3's signal on the same receptor and array of 0.02. With YEQAKNISQDLEKQAARVHEEAKRAG [LAMC1] the SPOT signal as a fraction of Bim BH3's signal on the same receptor and array was 0.03. IKKSVTKGEMLKIVLKRFREHFPEIL [MAGEB2] gave an SPOT signal as a fraction of Bim BH3's signal on the same receptor and array of 0.2. For GELAQVSGLEMRKWLDELFIIIMDML [mTOR], the SPOT signal as a fraction of Bim BH3's signal on the same receptor and array was 0.02. EVDVGKLVSRLQDGGTKITPKATNGP [OPHN1] was tested, and the SPOT signal as a fraction of Bim BH3's signal on the same receptor and array was 0.02. For NESLTDTARVLSSMADAVLARVYKQS [OTC], the SPOT signal as a fraction of Bim BH3's signal on the same receptor and array was 0.03. With PFDCRDYAVVLRKYLDKIYNISMKHP the SPOT signal as a fraction of Bim BH3's signal on the same receptor and array was 0.51. LDDVKILANGLLQLGHGLKDFVHKTK [ANGPTL3] gave an SPOT signal as a fraction of Bim BH3's signal on the same receptor and array of 0.04. Work on SQDVERFCRQLSSMASKLIISPFTLV [ABCD4] yielded an SPOT signal as a fraction of Bim BH3's signal on the same receptor and array of 0.05. In the case of DIFMNNVIVRLSQISEDVIRLFKKSK [SRGAP3], the SPOT signal as a fraction of Bim BH3's signal on the same receptor and array is reported as 0.18. For WRERPDVGRYLRELSGSGLERLRREP [COG8], the SPOT signal as a fraction of Bim BH3's signal on the same receptor and array was 0.09. Binder DNHKKKTVKMLEYLLKDVLHGVFNYL [CASP5] has an SPOT signal as a fraction of Bim BH3's signal on the same receptor and array of 0.24. Work on ATKRETAATFDKKVAKEFGFQNNGFS [NPLOC4] yielded an SPOT signal as a fraction of Bim BH3's signal on the same receptor and array of 0.24. In the case of SCMATVIHNPLKALLDQFYKEAIEHC [DPF3], the SPOT signal as a fraction of Bim BH3's signal on the same receptor and array is reported as 0.03. VFERCELARTLKRLLMDGYRGISLAN [LYZ] showed an SPOT signal as a fraction of Bim BH3's signal on the same receptor and array of 0.42. In the case of GENIRQAASSLQQASLKLFEMAYKKM [HSPA9], the SPOT signal as a fraction of Bim BH3's signal on the same receptor and array is reported as 0.09. Binder EEIIHKLAMQLRHILDNIDHRMVRED [PXT1] has an SPOT signal as a fraction of Bim BH3's signal on the same receptor and array of 0.02. GKDHPDVAKQLNNLALLCQNQGKYEE [KLC1] gave an SPOT signal as a fraction of Bim BH3's signal on the same receptor and array of 0.02. For GAQHSTMTSTLRRLLEDIFKGVVTKG [CCDC138], the SPOT signal as a fraction of Bim BH3's signal on the same receptor and array was 0.19. Binder GRQVEDAGRVLEGISKSISYDLDGEE [FIBIN] has an SPOT signal as a fraction of Bim BH3's signal on the same receptor and array of 0.02. LASIGGLAARLQLWAFKLDYDSMERE [FHOD1] gave an SPOT signal as a fraction of Bim BH3's signal on the same receptor and array of 0.03. For DISALTASNLLKKYLEKYSGILEGPV [FIGN], the SPOT signal as a fraction of Bim BH3's signal on the same receptor and array was 0.13. For AHKARALARLLRQTLLAAFSDFKRLQ [FAM43B], the SPOT signal as a fraction of Bim BH3's signal on the same receptor and array was 0.59. Work on PHQFDGVPDKLIQAAYQVKYNSKKMK yielded an SPOT signal as a fraction of Bim BH3's signal on the same receptor and array of 0.69. Binder NPIGLYSAETLREMAQMYQMSLRGKA [LDB3] has an SPOT signal as a fraction of Bim BH3's signal on the same receptor and array of 0.3. GEGAEEAAKDLADIAAFFRSGFRKND [TRIO] showed an SPOT signal as a fraction of Bim BH3's signal on the same receptor and array of 0.03. In the case of RYPILENPEILRKTLDDFLNRIALTD [CCNH], the SPOT signal as a fraction of Bim BH3's signal on the same receptor and array is reported as 0.02. Binder EVRSSQFARKLWRSSRRISQVSSGET [NBEAL2] has an SPOT signal as a fraction of Bim BH3's signal on the same receptor and array of 0.86. Work on RAEIEKMAEKINDIAYEMESRRTYLQ [C3orf15] yielded an SPOT signal as a fraction of Bim BH3's signal on the same receptor and array of 0.03. RGRTRGWVQTLARMSRRTRGPVERAA [C6orf223] showed an SPOT signal as a fraction of Bim BH3's signal on the same receptor and array of 0.75. Work on PKIYEGAARKLNVSSDTVQHGVEGLT [COMMD2] yielded an SPOT signal as a fraction of Bim BH3's signal on the same receptor and array of 0.03. TREAQKMAQLLVVLGKIINMKIKLFM [UGGT2] was tested, and the SPOT signal as a fraction of Bim BH3's signal on the same receptor and array was 0.1. Binder AIKPVSFIRDDKKIARHFRFGNQEDA [USP36] has an SPOT signal as a fraction of Bim BH3's signal on the same receptor and array of 1.34. In the case of VYILRKAARRDAQVSRAAGVRVGLLS [CACNA1G], the SPOT signal as a fraction of Bim BH3's signal on the same receptor and array is reported as 0.94. In the case of RQKIQRTARKLFGLSVRCRHNPNHQL [DBC1], the SPOT signal as a fraction of Bim BH3's signal on the same receptor and array is reported as 0.69. ENGHTDVADVLLQAGADLEHESEGGR [ANKRD17] gave an SPOT signal as a fraction of Bim BH3's signal on the same receptor and array of 0.02. For TNISWRACDHLRCILCDFLVVSYDDY [C8orf37], the SPOT signal as a fraction of Bim BH3's signal on the same receptor and array was 0.03. PFDCRDYAVVDRKYADKIYNISMKHP gave an SPOT signal as a fraction of Bim BH3's signal on the same receptor and array of 0.36. VAALEQAAYKLDAYSKKLEAKYKKLE [BLOC1S2] was tested, and the SPOT signal as a fraction of Bim BH3's signal on the same receptor and array was 0.25. TGGLPELASRLTRISAVLLEGMNKET [TCP11L2] was tested, and the SPOT signal as a fraction of Bim BH3's signal on the same receptor and array was 0.03. DISLSNSGFKDVNFGCDYHQYRDKFS [PION] showed an SPOT signal as a fraction of Bim BH3's signal on the same receptor and array of 0.03. TEEMKHNVEKLNELSKNLNRAFAEFE [DNAH3] was tested, and the SPOT signal as a fraction of Bim BH3's signal on the same receptor and array was 0.02. KNGHREVIRQLLRAGIEINRQTKTGT [CASKIN2] showed an SPOT signal as a fraction of Bim BH3's signal on the same receptor and array of 0.23. DTIFHRAAVRLRDLLGAILRHARRQA [BRPF3] was tested, and the SPOT signal as a fraction of Bim BH3's signal on the same receptor and array was 0.55.
